From patent publication US20250043302A1, “MUTATED HYDROXYPHENYLPYRUVATE DIOXYGENASE POLYPEPTIDE, AND CODING GENE AND USE THEREOF” (BEIJING DABEINONG BIOTECHNOLOGY CO., LTD., priority 2021, published 2025)

Legend:
Format in all cases: in vivo
[1] = test system: Arabidopsis thaliana T1 plants; assay: Isoxaflutole tolerance of transgenic Arabidopsis thaliana T1 plants (spray, bleached leaf area grade, damage score); details: Table 11; for Classification and statistics of the grade of pesticide damage Grade 0: number of plants at grade 0; for Classification and statistics of the grade of pesticide damage Grade 1: number of plants at grade 1; for Classification and statistics of the grade of pesticide damage Grade 2: number of plants at grade 2; for Classification and statistics of the grade of pesticide damage Grade 3: number of plants at grade 3; for Scores: pesticide damage score;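 as to Scores: Weighted damage index from 0 to 100 where higher means more damage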
Summary of the method: (§1)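 Damage graded 0–3 from the proportion of bleached leaf area 7 days after spraying. Plants were glufosinate-selected T1 lines, 18 days after sowing, plus vector and wild-type controls. Rates: mesotrione 52.5–420, isoxaflutole 35–280, topramezone 25–200 g ai/ha, with water (0×).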

[2] = test system: Arabidopsis thaliana T1 plants; assay: Mesotrione tolerance of transgenic Arabidopsis thaliana T1 plants (spray, bleached leaf area grade, damage score); design: Scores: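 damage score 0-100 computed as Σ(N×S)/(T×M)×100 over grades 0-3 with higher meaning more damage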; details: Table 12; for Classification and statistics of the grade of pesticide damage Grade 0: number of plants at grade 0; for Classification and statistics of the grade of pesticide damage Grade 1: number of plants at grade 1; for Classification and statistics of the grade of pesticide damage Grade 2: number of plants at grade 2; for Classification and statistics of the grade of pesticide damage Grade 3: number of plants at grade 3; for Scores: pesticide damage score
Summary of the method: as §1

[3] = test system: Arabidopsis thaliana T1 plants; assay: Topramezone tolerance of transgenic Arabidopsis thaliana T1 plants (spray, bleached leaf area grade, damage score); details: Table 10; for Classification and statistics of the grade of pesticide damage Grade 0: number of plants at grade 0; for Classification and statistics of the grade of pesticide damage Grade 1: number of plants at grade 1; for Classification and statistics of the grade of pesticide damage Grade 2: number of plants at grade 2; for Classification and statistics of the grade of pesticide damage Grade 3: number of plants at grade 3; for Scores: pesticide damage score
Summary of the method: as §1

B1: HPPDm-7-02: nucleotide sequence encoding AsHPPDm-A107-K351N-F372A-F383W with mutated C-terminal; vector DBN11788 (nucleic acid)
DNA: ATGCCACCTACTCCAGCTACAGCTACTGGTGCTGCTGCTGCTGCCGTTACTCCTGAGCACGCTGCCAGGTCATTCCCCAGGGTGGTTCGCGTGAACCCCAGATCTGATAGGTTCCCAGTTCTGAGCTTCCACCATGTTGAGCTGTGGTGCGCTGATGCTGCTTCTGCTGCTGGCAGGTTCTCTTTCGCTCTTGGTGCTCCACTCGCTGCTAGATCTGATCTGTCTACAGGAAATAGCGCTCATGCCTCACTCCTGCTTCGCTCAGGTGCTTTGGCCTTCCTCTTCACCGCTCCATATGCTCCCCCACCTCAGGAGGCTACTGCTGCTGCTACAGCCTCCATTCCAAGCTTCTCAGCTGATGCCGCTAGAACCTTCGCTGCTGCTCATGGACTTGCCGTGAGGTCTGTTGGTGTTCGCGTGGCTGATGCTGCTGAGGCTTTCAGAGTTTCCGTTGCCGGCGGAGCTAGGCCAGCTTTCGCTCCTGCTGATTTGGGACATGGTTTCGGCCTGGCTGAGGTTGAGCTTTACGGTGACGTGGTTCTCCGCTTCGTGTCTTACCCAGATGAGACTGACCTGCCTTTCCTTCCCGGCTTCGAGAGAGTTTCCTCTCCTGGTGCCGTGGATTACGGCCTGACAAGGTTCGACCACGTGGTTGGAAACGTTCCCGAGATGGCTCCAGTGATCGATTACATGAAGGGCTTCCTTGGATTCCATGAGTTCGCCGAGTTCACTGCTGAGGACGTGGGAACCACTGAGTCCGGTTTGAACTCTGTGGTTCTCGCCAACAATTCTGAGGCTGTTTTGCTCCCTCTGAATGAGCCTGTGCATGGAACCAAGAGGAGAAGCCAGATTCAAACTTACCTGGAGTACCACGGTGGCCCTGGAGTTCAGCATATCGCCCTTGCTTCTAATGATGTGTTGCGCACACTCAGAGAGATGCGCGCCAGAACCCCCATGGGAGGTTTCGAGTTCATGGCCCCACCACAGGCTAAGTACTACGAGGGCGTTAGAAGGATTGCTGGAGACGTGTTGAGCGAGGAGCAGATCAATGAGTGCCAAGAGCTGGGTGTTCTTGTGGATAGGGATGACCAGGGCGTTCTGCTTCAAATTGCCACTAAGCCAGTGGGCGACCGCCCTACATTCTGGCTTGAGATGATTCAAAGAATCGGCTGCATGGAGAAGGATGAGGTTGGACAGGAGTACCAAAAGGGCGGATGCGGTGGCTTCGGAAAGGGTAACTTCAGCGAGTTGTTCAAGTCAATCGAGGAGTATGAGAAGACCTTGGAGGCCAAGCAGCTCGTGGGTTGA
modifications: mutated C-terminus; HPPDm-7-02 Nucleotide Sequence
notes: vector DBN11788
Resistance evaluation ([1]; isoxaflutole 140 g ai/ha (2×)): Highly resistant
Classification and statistics of the grade of pesticide damage Grade 0 ([1]; isoxaflutole 140 g ai/ha (2×)): 16
Classification and statistics of the grade of pesticide damage Grade 1 ([1]; isoxaflutole 140 g ai/ha (2×)): 0
Classification and statistics of the grade of pesticide damage Grade 2 ([1]; isoxaflutole 140 g ai/ha (2×)): 0
Classification and statistics of the grade of pesticide damage Grade 3 ([1]; isoxaflutole 140 g ai/ha (2×)): 0
Scores ([1]; isoxaflutole 140 g ai/ha (2×)): 0
Resistance evaluation ([1]; isoxaflutole 280 g ai/ha (4×)): Highly resistant
Classification and statistics of the grade of pesticide damage Grade 0 ([1]; isoxaflutole 280 g ai/ha (4×)): 16
Classification and statistics of the grade of pesticide damage Grade 1 ([1]; isoxaflutole 280 g ai/ha (4×)): 0
Classification and statistics of the grade of pesticide damage Grade 2 ([1]; isoxaflutole 280 g ai/ha (4×)): 0
Classification and statistics of the grade of pesticide damage Grade 3 ([1]; isoxaflutole 280 g ai/ha (4×)): 0
Scores ([1]; isoxaflutole 280 g ai/ha (4×)): 0
Resistance evaluation ([2]; mesotrione 210 g ai/ha (2×)): Highly resistant
Classification and statistics of the grade of pesticide damage Grade 0 ([2]; mesotrione 210 g ai/ha (2×)): 16
Classification and statistics of the grade of pesticide damage Grade 1 ([2]; mesotrione 210 g ai/ha (2×)): 0
Classification and statistics of the grade of pesticide damage Grade 2 ([2]; mesotrione 210 g ai/ha (2×)): 0
Classification and statistics of the grade of pesticide damage Grade 3 ([2]; mesotrione 210 g ai/ha (2×)): 0
Scores ([2]; mesotrione 210 g ai/ha (2×)): 0
Resistance evaluation ([2]; mesotrione 420 g ai/ha (4×)): Highly resistant
Classification and statistics of the grade of pesticide damage Grade 0 ([2]; mesotrione 420 g ai/ha (4×)): 15
Classification and statistics of the grade of pesticide damage Grade 1 ([2]; mesotrione 420 g ai/ha (4×)): 1
Classification and statistics of the grade of pesticide damage Grade 2 ([2]; mesotrione 420 g ai/ha (4×)): 0
Classification and statistics of the grade of pesticide damage Grade 3 ([2]; mesotrione 420 g ai/ha (4×)): 0
Scores ([2]; mesotrione 420 g ai/ha (4×)): 2
Resistance evaluation ([3]; topramezone 100 g ai/ha (4×)): Highly resistant
Classification and statistics of the grade of pesticide damage Grade 0 ([3]; topramezone 100 g ai/ha (4×)): 16
Classification and statistics of the grade of pesticide damage Grade 1 ([3]; topramezone 100 g ai/ha (4×)): 0
Classification and statistics of the grade of pesticide damage Grade 2 ([3]; topramezone 100 g ai/ha (4×)): 0
Classification and statistics of the grade of pesticide damage Grade 3 ([3]; topramezone 100 g ai/ha (4×)): 0
Scores ([3]; topramezone 100 g ai/ha (4×)): 0
Resistance evaluation ([3]; topramezone 200 g ai/ha (8×)): Highly resistant
Classification and statistics of the grade of pesticide damage Grade 0 ([3]; topramezone 200 g ai/ha (8×)): 16
Classification and statistics of the grade of pesticide damage Grade 1 ([3]; topramezone 200 g ai/ha (8×)): 0
Classification and statistics of the grade of pesticide damage Grade 2 ([3]; topramezone 200 g ai/ha (8×)): 0
Classification and statistics of the grade of pesticide damage Grade 3 ([3]; topramezone 200 g ai/ha (8×)): 0
Scores ([3]; topramezone 200 g ai/ha (8×)): 0
